# Assay results taken from patent publication US20240124536A1, “BASE EDITING OF TRANSTHYRETIN GENE” (Beam Therapeutics Inc., priority 2021, published 2024).
# Strand notation (5' to 3'): a small letter for the sugar, then the base; units joined by * are phosphorothioate-linked, units joined directly phosphodiester-linked; [ ] holds rarer units or linkages, { } end groups; capitals alone tell only the bases. m = 2'-O-methyl; r = 2'-OH (RNA)
# How the values were obtained:
# human TTR gene = assay: Editing activity in human primary hepatocytes (gRNA + ABE8.8 mRNA co-transfection, NGS of PCR amplicons); type: cell-based; details: for Human hepatocytes - Editing %, 625, rep 1 / Human hepatocytes - Editing %, 625, rep 2: 625 ng/RNA/mL; for Human hepatocytes - Editing %, 1250, rep 1 / Human hepatocytes - Editing %, 1250, rep 2: 1250 ng/RNA/mL; for Human hepatocytes - Editing %, 2500, rep 1 / Human hepatocytes - Editing %, 2500, rep 2: 2500 ng/RNA/mL; for editing activity in human primary hepatocytes (in words): ABE8.8 mRNA co-transfection
# Description: With this example, gRNA sequences were identified that permit ABE8.8 (and other ABE variants containing Streptococcus pyogenes Cas9, such as ABE7.10, or another Cas protein that can use the NGG PAM) to either: 1) disrupt the start codon, or 2) disrupt splice sites, whether donors or acceptors, via A→G editing within its editing window (roughly positions 4 to 7 in the 20-nt protospacer region of DNA). Five sequences were identified throughout the human TTR gene (Table 1). gRNAs were synthesized matching each of the protospacer sequences and otherwise conforming to the standard 100-nt Streptococcus pyogenes CRISPR gRNA sequence, with each gRNA molecule having a minimal degree of chemical modifications (specified in Table 1).
# (§1) The mRNA, and corresponding amino acid, sequence of the ABE8.8 (MA004) used in shown below in Table 11. Three days after transfection, genomic DNA was harvested from the hepatocytes, and assessed for base editing with next-generation sequencing of PCR amplicons generated around the target splice site. […] See FIGS. 5A-5C, FIG. 6, and Tables 2-3.
# TTR on-target site = assay: Off-target validation in human primary hepatocytes: editing at the on-target site; type: cell-based; details: for on-target site editing efficiency (in words): treated vs control, human primary hepatocytes
# Description: (§2) Several candidate off-target sites were analyzed for off-target editing in human primary hepatocytes.
# [1] = test system: potential off-target candidate sites
# Description: With a view towards establishing the safety of a base-editing therapy knocking down of TTR in the human liver in vivo, off-target mutagenesis analysis is assessed in primary human hepatocytes. […] The in vitro biochemical assay ONE-seq was used to generate a list of candidate off-target sites and to determine the propensity of a ribonucleoprotein comprising the ABE8.8 base editor protein and each of the three protospacer guides sequences (GA457, GA460, and GA461) to cleave oligonucleotides in a library.
# For human ONE-seq libraries, the reference human genome (GRCh38, Ensembl v98, chromosomes ftp://ftp.ensembl.org/pub/release-98/fasta/homo_sapiens/dna/Homo_sapiens.GRCh38.dna.chromosome.{1-22,X,Y,MT}.fa and ftp://ftp.ensembl.org/pub/release-98/fasta/homo_sapiens/dna/Homo_sapiens.GRCh38.dna.nonchromosomal.fa), was searched for potential off-target sites with up to 6 mismatches to the protospacer sequence above, and sites with up to 4 mismatches plus up to 2 DNA or RNA bulges, using Cas-Designer v1.2 (http://www.rgenome.net/cas-designer/).
# For each site, the total number of edited reads was normalized to the total number of edited reads assigned to the on-target site, and this ratio defines the ONE-seq score for the site. Sites were ranked by ONE-seq score, and those with a score equal to or larger than 0.001, were selected for validation. A score equal to or larger than 0.001 encompasses sites that have down to 1000-fold less editing activity in the biochemical assay compared to editing of the on-target site. This threshold is based on the premise that in cells, if there is 10000 on-target editing, 1/1000-fold less editing activity would translate to % 0.1% off-target editing, which falls below the lower limit of detection of editing by NGS.
# as §2
# [2] = test system: cynomolgus monkey TTR gene; assay: Editing activity in cyno primary hepatocytes (gRNA + ABE8.8 mRNA transfection, NGS); type: cell-based; details: for Cyno hepatocytes - Editing %, 156.25: 156.25 ng/RNA/mL; for Cyno hepatocytes - Editing %, 312.5: 312.5 ng/RNA/mL; for Cyno hepatocytes - Editing %, 625: 625 ng/RNA/mL; for Cyno hepatocytes - Editing %, 1250: 1250 ng/RNA/mL; for Cyno hepatocytes - Editing %, 2500: 2500 ng/RNA/mL; for Cyno hepatocytes - Editing %, 5000: 5000 ng/RNA/mL; for editing activity in cynomolgus primary hepatocytes (in words): ABE8.8 mRNA co-transfection
# Description: as §1
Molecule,"Human hepatocytes - Editing %, 625, rep 1 (human TTR gene) [%]","Human hepatocytes - Editing %, 625, rep 2 (human TTR gene) [%]","Human hepatocytes - Editing %, 1250, rep 1 (human TTR gene) [%]","Human hepatocytes - Editing %, 1250, rep 2 (human TTR gene) [%]","Human hepatocytes - Editing %, 2500, rep 1 (human TTR gene) [%]","Human hepatocytes - Editing %, 2500, rep 2 (human TTR gene) [%]",editing activity in human primary hepatocytes (in words) (human TTR gene),on-target site editing efficiency (in words) (TTR on-target site),off-target editing at candidate off-target sites (in words) [1],"Cyno hepatocytes - Editing %, 156.25 [2] [%]","Cyno hepatocytes - Editing %, 312.5 [2] [%]","Cyno hepatocytes - Editing %, 625 [2] [%]","Cyno hepatocytes - Editing %, 1250 [2] [%]","Cyno hepatocytes - Editing %, 2500 [2] [%]","Cyno hepatocytes - Editing %, 5000 [2] [%]",editing activity in cynomolgus primary hepatocytes (in words) [2],also measured
"GA457: Human TTR guide RNA, spacer GCCAUCCUGCCAAGAAUGAG, gRNA SEQ ID NO: 11 (nucleic acid, chemistry not given here) guide: GCCATCCTGCCAAGAATGAGGTTTTAGAGCTAGAAATAGCAAGTTAAAATAAGGCTAGTCCGTTATCAACTTGAAAAAGTGGCACCGAGTCGGTGCTTTT",17.24,15.39,26.49,24.86,33.96,31.31,high editing activity,high editing efficiency,little to no editing,,,,,,,,"% Editing - human primary hepatocytes, Net (TTR on-target site; On-target GCCATCCTGCCAAGAATGAG): 54.1%; % Editing - human primary hepatocytes, Treated (TTR on-target site; On-target GCCATCCTGCCAAGAATGAG): 54.21%; net editing at all off-target sites ([1]; 47 candidate off-target sites, human primary hepatocytes): less than 0.40"
"GA460: Human/Cyno TTR guide RNA, spacer UAUAGGAAAACCAGUGAGUC, gRNA SEQ ID NO: 14 (nucleic acid, chemistry not given here) guide: TATAGGAAAACCAGTGAGTCGTTTTAGAGCTAGAAATAGCAAGTTAAAATAAGGCTAGTCCGTTATCAACTTGAAAAAGTGGCACCGAGTCGGTGCTTTT",23.77,22.27,38.33,35.8,47.61,47.79,high editing activity,high editing efficiency,little to no off-target editing,1.62,11.22,18.44,31.71,38.25,40.16,high editing activity,"SUM Editing % - Human Primary Hepatocytes, Treat rep 1 (TTR on-target site; On-target TATAGGAAAACCAGTGAGTC): 76.4%; SUM Editing % - Human Primary Hepatocytes, Treat rep 2 (TTR on-target site; On-target TATAGGAAAACCAGTGAGTC): 74.3%"
"GA461: Human/Cyno TTR guide RNA, spacer UACUCACCUCUGCAUGCUCA, gRNA SEQ ID NO: 15 (nucleic acid, chemistry not given here) guide: TACTCACCTCTGCATGCTCAGTTTTAGAGCTAGAAATAGCAAGTTAAAATAAGGCTAGTCCGTTATCAACTTGAAAAAGTGGCACCGAGTCGGTGCTTTT",21.81,22.31,32.82,32.38,40.42,39.43,high editing activity,high editing efficiency,little to no off-target editing,0.07,7.45,13.16,19.46,29.8,37.53,high editing activity,"SUM Editing % - Human Primary Hepatocytes, Treat rep 2 (TTR on-target site; On-target TACTCACCTCTGCATGCTCA): 58.9%"
"GA458: Cyno TTR guide RNA, cynomolgus equivalent of GA457, spacer GCCAUCCUGCCAAGAACGAG, gRNA SEQ ID NO: 29 (nucleic acid) guide: mG*mC*mC*rArUrCrCrUrGrCrCrArArGrArArCrGrArGrGrUrUrUrUrArGrArGrCrUrArGrArArArUrArGrCrArArGrUrUrArArArArUrArArGrGrCrUrArGrUrCrCrGrUrUrArUrCrArArCrUrUrGrArArArArArGrUrGrGrCrArCrCrGrArGrUrCrGrGrUrGrCrU*mU*mU*mU",,,,,,,,,,6.06,10.65,16.07,22.74,27.25,35.91,high editing activity,
"GA459: Human TTR guide RNA, spacer GCAACUUACCCAGAGGCAAA, gRNA SEQ ID NO: 13 (nucleic acid, chemistry not given here) guide: GCAACTTACCCAGAGGCAAAGTTTTAGAGCTAGAAATAGCAAGTTAAAATAAGGCTAGTCCGTTATCAACTTGAAAAAGTGGCACCGAGTCGGTGCTTTT",3.79,3.89,5.46,6.15,8.5,8.69,,high editing efficiency,little to no off-target editing,,,,,,,,"SUM Editing % - Human Primary Hepatocytes, Treat rep 1 (TTR on-target site; On-target GCAACTTACCCAGAGGCAAA): 14.17%; SUM Editing % - Human Primary Hepatocytes, Treat rep 2 (TTR on-target site; On-target GCAACTTACCCAGAGGCAAA): 14.29%"
